{"source": "the nanobody polyreactivity screen of Harvey et al. (2022)"}
{"assay": "yeast display, Sf9 membrane polyspecificity reagent, FACS + sequencing; frameworks hold sequencing errors", "outline": "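After 36–48 hours of galactose induction, yeast (Saccharomyces cerevisiae BJ5465) displaying a synthetic nanobody library were stained at 4 °C for 1 hour with 10% biotinylated, detergent-solubilized Sf9 membrane reagent. Streptavidin microbeads enriched the stained cells before FACS sorting into low and high (top ~1%) gates on anti-HA and streptavidin fluorescence. Each clone's polyreactivity label reflects its gate of origin.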"}
{"sequence": "QVQLEESGGGLVQAGGSLRLSCAASGLIFQVYALGWYRQAPGKERELVASISWNGGSTYYADSVKGRFTISRDNAKNTVYLQMNSLKPEDTAVYYCNKYPVSLWYYSKDYTYDYWGQGTQVTVSS", "polyreactivity (PSR sort gate)": "low polyreactivity"}
{"sequence": "QVQLEESGGGLVQAGGSLRLSCAASGLILRTYGMGWYRQAPGKERELVAVISSGGSTYYADSVKGRFTISRDNAKNTVYLQMNSLKPEDTAVYYCAVRSSWYEGDYWGQGTQVTVSS", "polyreactivity (PSR sort gate)": "low polyreactivity"}
{"sequence": "QVQLEESGGGLVQAGGSLRLSCAASGLTFGDYTMGWYRQAPWKERELVAAITSRGGRTYYADSVKGRFTISRDNAKNTVYLQMNSLTPEDTAVYYCAADDLRIKRVGFDYWGQGTQVTVSS", "polyreactivity (PSR sort gate)": "high polyreactivity"}
{"sequence": "QVQLEESGGGLVQAGGSLRLSCAASGLTFRSYAMGWYRQAPGTEREFVAAITGSGDTTYYAVSVKGRFTISRDNALNTVYLQMNSLNPEETAGYYCNADRDYLWITLYEYWGQGTQLTVSS", "polyreactivity (PSR sort gate)": "high polyreactivity"}
{"sequence": "QVQLEESGGGLVQAGGSLRLSCAASGLTFVYNAMGWYRQAPGKERELVAAISRVGSTNYADSVKGRFTISRDNAKNTVYLQMNSLKPEDTAVYYCNAERSRRYSGWVNYAPLNYWGQGTQVTVSS", "polyreactivity (PSR sort gate)": "low polyreactivity"}
{"sequence": "QVQLEESGGGLVQAGGSLRLSCAASGLTLGRYAMGWYRPAPGKERELVAVITGGGSTNYADSVKGRFTISRDNAKNTVYLQMNSLKPEDTAVYYCAVRGGIFQTLSTWYRYYYWGQGTQVTVSS", "polyreactivity (PSR sort gate)": "high polyreactivity"}
{"sequence": "QVQLEESGGGLVQAGGSLRLSCAASGRICAYYTMGWYRQAPGKERELVASITSGSSTNYADSVKGRFTISRDNAKNTVYLQMNSLKPEDTAVYYSAAPRGSYVRTRYRGYVVQSNYWGQGTQVTVSS", "polyreactivity (PSR sort gate)": "high polyreactivity"}
{"sequence": "QVQLEESGGGLVQAGGSLRLSCAASGRIFGIYAMGWYRQAPGKERELVASITDGTITNYADSVKGRFTISRDNAKNTVYLQMNSLKPEDTAVYYCAAGTQAHAFVVRPIEMDYWGQGTQVTVSS", "polyreactivity (PSR sort gate)": "low polyreactivity"}
{"sequence": "QVQLEESGGGLVQAGGSLRLSCAASGRIFHKNAMGWYRQAPGKEREFVATISSRGGSTYYADSVKGRFTISRDNSKNTVYLQMNSLKPEDSAVYYCAAGWYRNDWGQRLHTYYYWGQGTQVTVSS", "polyreactivity (PSR sort gate)": "high polyreactivity"}
{"sequence": "QVQLEESGGGLVQAGGSLRLSCAASGRIFNENAMGWYRQAPGKERELVAAITQSGGSTYYADSVKGRFTISRDNAKNTVYLQMNSLKPEDTAVYYCAAGDAYYTEALPFGEYDYWGQGTQVTVSS", "polyreactivity (PSR sort gate)": "low polyreactivity"}
{"sequence": "QVQLEESGGGLVQAGGSLRLSCAASGRIFPINTMGWYRQAPGKERELVAAISSNGGRTYYADSVKGRFTISRDNAKNTVYLQMNSLKPEDTAVYYCAADAGYYWPGYYYWGQGTQVTVSS", "polyreactivity (PSR sort gate)": "high polyreactivity"}
{"sequence": "QVQLEESGGGLVQAGGSLRLSCAASGRIFSGNAKGWYRQAPGKERELVANITSSSNTNYADSVKGRFTISRDNAKNTVYLQMNSLKPEDTAVYYCAKSAHNGYSFYGYDYWGQGTQVTVSS", "polyreactivity (PSR sort gate)": "low polyreactivity"}
{"sequence": "QVQLEESGGGLVQAGGSLRLSCAASGRIFSYNVMGWYRQAPGKEREFVAAITSNDGSTYYADSVKGRFTISRDNAKNTVYLQMNSLKPEDTAVYYCNADFGPVSLKEPFRDDYWGQGTQVNVSS", "polyreactivity (PSR sort gate)": "low polyreactivity"}
{"sequence": "QVQLEESGGGLVQAGGSLRLSCAASGRIFTANAMGWYRQAPGKERELVASISYRSGRTRYADSVKGRFTISRDNAKNTVYLQMNSLKPEDTAVYYCATDRGRRYDYWGQGTQVTVSS", "polyreactivity (PSR sort gate)": "high polyreactivity"}
{"sequence": "QVQLEESGGGLVQAGGSLRLSCAASGRIFVFYDMGWYRQAPGKERELVATITRSGGRTYYADSVKGRFTISRDNAKNTVYLQMNSLKPEDTAVYYCAARRYGKYDYWGQGTQVTVSS", "polyreactivity (PSR sort gate)": "low polyreactivity"}
{"sequence": "QVQLEESGGGLVQAGGSLRLSCAASGRIFVSNDMGWYRQAPGKERELVAAITWSDDSTHYADSVKGRFTISRDYAKNTVYLQRNSVKPEDTAVYYCNKQRYYSTWRYDYWGQGTQVTVSS", "polyreactivity (PSR sort gate)": "low polyreactivity"}
{"sequence": "QVQLEESGGGLVQAGGSLRLSCAASGRIFWVNVMGWYRQAPGKERELVAAITRGASTYADSVKGRFTISRDNAKNTVYLQLNSLKPEDTAVYYCAVGISDFQYYDYVYWGQGTHVTVSS", "polyreactivity (PSR sort gate)": "high polyreactivity"}
{"sequence": "QVQLEESGGGLVQAGGSLRLSCAASGRIFYGYAMGWSRQAPGKERELVASISRRGSSTYYADSVKGRFTISRDNAKNTVYLQMNSLKPEDTAVYYCAAGYYPFNYWGQGTQVTVSS", "polyreactivity (PSR sort gate)": "high polyreactivity"}
{"sequence": "QVQLEESGGGLVQAGGSLRLSCAASGRIIYSNGMGWYRQAPGKERELVAAISSGGSTYYADSVKGRFTISRDNAKNTVYLQMNSLKPEDTAVYYCAADIDYERDRYDYWGQGTQVTVSS", "polyreactivity (PSR sort gate)": "low polyreactivity"}
{"sequence": "QVQLEESGGGLVQAGGSLRLSCAASGRISAKYAMGWYRKAPGKERELVASISWSGGSTYYADSVKGRFTISRDNAKNTVYLQMNSLKPEDTAVYYCAADLTQQRGVRGMDYWGQGTQVTVSS", "polyreactivity (PSR sort gate)": "low polyreactivity"}
{"sequence": "QVQLEESGGGLVQAGGSLRLSCAASGRTFAFNAMGWYRPAPGKVRELVAVITSRTTRTYYADSVKGRFTISRDNAKNTVYLQMNSLKPEDTAVYYCAAGFRRQSIRFDYWGQGTQVTVSS", "polyreactivity (PSR sort gate)": "high polyreactivity"}
{"sequence": "QVQLEESGGGLVQAGGSLRLSCAASGRTFDVYAMGWYRQAPGKEREFVAAINWSSSSTYYADSVKGRFTISRDNAKNTVYLQMNSLKPEDTAVYYCAARYKRYTRFDYWGQGTQVTVSS", "polyreactivity (PSR sort gate)": "high polyreactivity"}
{"sequence": "QVQLEESGGGLVQAGGSLRLSCAASGRTFKYYAMGWYIQAPGKERELVAAISWSGGDTYYADSVKGRFTISRDNAKNTVYLQMNSLKQEDTAVYYCAKYPWYRYPSYEYWGQGTQVTVSS", "polyreactivity (PSR sort gate)": "high polyreactivity"}
{"sequence": "QVQLEESGGGLVQAGGSLRLSCAASGRTFRINDMGWYRQAPGKERELVATINSTGSTNYADSVKGRFTISRDNAKNTVYLQMNSLKPEDTAVYYCNAYLYYYRYHYNYWGQGTQVTVSS", "polyreactivity (PSR sort gate)": "low polyreactivity"}
{"sequence": "QVQLEESGGGLVQAGGSLRLSCAASGRTFSYYSMGCYRKAPGKERELVAAITSGGRTYYADSVKGRFTISRDNAKNTVYLQINSLKPEDTAVYYCAARWYARSLTRFNYWGQGTQVTVSS", "polyreactivity (PSR sort gate)": "high polyreactivity"}
{"sequence": "QVQLEESGGGLVQAGGSLRLSCAASGRTFYGKAMGWYRNAPGKEWEFVASISYSGTTTYYADSVKGRFTISRDNAKNTVYLKMNSLKPEDTAVYYCAVESYPTDYGPRFGSWGQGTQVTVSS", "polyreactivity (PSR sort gate)": "low polyreactivity"}
{"sequence": "QVQLEESGGGLVQAGGSLRLSCAASGRTFYSYAMGWYRQAPGKEREWVAAITSDGGTYYADSVKGRFTISRDNAKNTVYLQMNSLKPEDTAVYYCAAELYYWYYYWGQGTQVTVSS", "polyreactivity (PSR sort gate)": "low polyreactivity"}
{"sequence": "QVQLEESGGGLVQAGGSLRLSCAASGRTFYVNAMGWYRQATGKERELVAAISWSGGSTYYADSVKGRFTISRDNAKNTVYLQINSLKPEDTAVYYCAAEDIEDYEYWGQGTQVTVSS", "polyreactivity (PSR sort gate)": "low polyreactivity"}
{"sequence": "QVQLEESGGGLVQAGGSLRLSCAASGSIFALYAMGWYRQAPGKERELVAAISYRGGRTYYADSVKARFTISRDYAKNTVYLQMNILKPEDTAVYYCATDFPCKFDFWGQGTQVTVSS", "polyreactivity (PSR sort gate)": "low polyreactivity"}
{"sequence": "QVQLEESGGGLVQAGGSLRLSCAASGSIFDSYARGWNSQAPVQERELVAAISRSGGRTYYADSVKGRFTISRDNAKNTVYLQMNSLKPEDTAVYYCNVVLGWWAPYFYTSGDYWGQGTQVTVSS", "polyreactivity (PSR sort gate)": "high polyreactivity"}
{"sequence": "QVQLEESGGGLVQAGGSLRLSCAASGSIFGNAMGWYRQAPGKEREFVAAISSSGSSTYYADSVKGRFTISRDNAKNTVYLQMNSLKPEDTAVYYCAKRRRSADPKYDYWGQGTQVTVSS", "polyreactivity (PSR sort gate)": "high polyreactivity"}
{"sequence": "QVQLEESGGGLVQAGGSLRLSCAASGSIFQSYDMGWYRQAPGKERELVAAISWSGSTTYYADSVKGRFTISRDNAKNTVYLQMNSLKPEDTAVYYSAVDSNPPDWWAVIYGYWGQGTQVTVSS", "polyreactivity (PSR sort gate)": "low polyreactivity"}
{"sequence": "QVQLEESGGGLVQAGGSLRLSCAASGSIFRSNAMGWYRQAPGKERELVAAISSSGGSTYYADSVKGRFTISRDKAKNTVYLQMNSLKPEDTAVYYCAARPSGRGYYLLGYWGQGTQVTVSS", "polyreactivity (PSR sort gate)": "low polyreactivity"}
{"sequence": "QVQLEESGGGLVQAGGSLRLSCAASGSIFSQYAMGWYRQAPGKERELVASITWRGGRTYYADSVKGRFTISRDNAKNTVYLQMNSLKPEDTAVYYCNRVYGAHHYYYGIGTYDYWGQGTQVTVSS", "polyreactivity (PSR sort gate)": "high polyreactivity"}
{"sequence": "QVQLEESGGGLVQAGGSLRLSCAASGSIFSTYAMGWYRQAPGKERELVSAINSGDSTSYADSVKGRFTISRDNAKNTVYLQRNSLKPEDTAVYYCAAKTGGYWYLRRTGRYESWGQGTQVTVSS", "polyreactivity (PSR sort gate)": "low polyreactivity"}
{"sequence": "QVQLEESGGGLVQAGGSLRLSCAASGSIFTANAMGWYRQAHGKERELVAAINRSGGRTYADSVKGRFTISRDNAKNTVYLQMNSLKPEDTAVYYCAAVGHVYKGHDFGYWGQGTQVTVSS", "polyreactivity (PSR sort gate)": "low polyreactivity"}
{"sequence": "QVQLEESGGGLVQAGGSLRLSCAASGSIFTDYAMGSYGQAPGKERELVAAITSGGSTNYADSVKGRFTISRDNAKNTVYLQMNSLKPEDTAVYYCNADDYWLDSWSSDLWYDYWGQGTQVTVSS", "polyreactivity (PSR sort gate)": "low polyreactivity"}
{"sequence": "QVQLEESGGGLVQAGGSLRLSCAASGSIFVRNAMGWYRQAPGKERELVAAISRSGSSTYYADSVKGRFTISRDNAKNTVYLQMNSLKPEDTAVYYCAKRRPALRWIYYYWGQGTQVTVSS", "polyreactivity (PSR sort gate)": "high polyreactivity"}
{"sequence": "QVQLEESGGGLVQAGGSLRLSCAASGSIFVSVTMGWYRQAPGKERELVASIGRGSTTNHADSVKGRFTISRDNAKNIVYLLMNSLKPEDTAVYYCAALESYGKYHGYWGQGTQVTVSS", "polyreactivity (PSR sort gate)": "low polyreactivity"}
{"sequence": "QVQLEESGGGLVQAGGSLRLSCAASGSIFYPYAMGWYRQAPGKERELVAAISGRGGNTYYADSVKGRFTISRDIAKNTVYLQMNSLKPEDSAVYDCAADRYYWSLYGYDYWGQGTQVTVSA", "polyreactivity (PSR sort gate)": "high polyreactivity"}
{"sequence": "QVQLEESGGGLVQAGGSLRLSCAASGSIFYVNAMGWYRQAPGKERELVAAITSSGGSTYYADSVKGRFTISRDNAKNTVYLQMNSLIPEDTAVYYCAVDVYPGVFVEEGEYWGQGTQVTVSS", "polyreactivity (PSR sort gate)": "low polyreactivity"}
{"sequence": "QVQLEESGGGLVQAGGSLRLSCAASGSIFYYNAMGWYRQAPGTERELVAAIRRSGGRTYYADSVKGRFTISRDNAKNSVYLQMNSLKPEDTAVYYCAAVHYDRVTCQVDNDYWGQGTQVTVSS", "polyreactivity (PSR sort gate)": "high polyreactivity"}
{"sequence": "QVQLEESGGGLVQAGGSLRLSCAASGSIIYENTMGWYRQAPGKERELVAAISASGGSTEYADSVKGRFTISRDNEKNTVYLQMKSLKPEDTGVYYCAADACAFYFGGDYWGLGTQVTVSS", "polyreactivity (PSR sort gate)": "low polyreactivity"}
